Seven molecules from patent US8765433B2, “Alcohol dehydrogenases (ADH) useful for fermentive production of lower alkyl alcohols” (Butamax Advanced Biofuels LLC, priority 2009, dated 2014) can be followed below.

What all share (type): biochemical
A short description of data set [1]: Cofactor specificity in isobutyraldehyde reduction reactions. The settings on record: for COFACTOR PREFERENCE: isobutyraldehyde reduction, NADH or NADPH as cofactor. How it is done:
(§1) As a routine practice, the crude extracts and purified proteins were assayed for butanol oxidation activity, in order to ensure that the recombinant proteins were active throughout the purification process. […] Alcohol oxidation activities were carried out in 50 mM sodium phosphate buffer at pH 8.8 and aldehyde reduction reactions were assayed in 190 mM potassium phosphate buffer at pH 7.0. Depending on the nature of reaction being carried out, the enzyme and cofactor stocks were diluted in the reaction buffers at the respective pHs. Either buffer or cell extract prepared from the proprietary E. coli strain (with no ADH plasmid) was used as the negative control for assays with purified protein and cell-free extracts, respectively.
(§2) In initial experiments, there were insufficient levels of protein expression with EhADH1 and RpADH8. […] It is believed that one of skill in the art could further optimize expression and assay conditions for these candidates. Sufficient amounts of active protein could be purified with all other enzymes for which data are presented. […]

The nature of data set [2]: Semi-physiological time-course assay with and without 321 mM isobutanol. The text has this:
The ideal way to characterize and compare various ADH candidates would be to calculate and compare the full set of kinetic constants, i.e., kcat values for aldehyde reduction and alcohol oxidation, KM values for isobutyraldehyde, isobutanol, NAD(P) and NAD(P)H, and KI values for isobutyraldehyde and isobutanol. A detailed characterization for numerous candidates would require considerable expenditure of time, effort and money. Thus, a qualitative assay was developed to allow for quick and efficient comparison of several candidates. A semi-physiological assay was designed to compare the performance of various enzymes. The assays entail the initiation of all reactions with a constant amount of each enzyme. […] Each reaction's time course was followed for 10 min by measuring the decrease in absorbance at 340 nm, as the reaction proceeds towards equilibrium. An enzyme with a high kcat, would drive the reaction towards equilibrium faster than an enzyme with a lower kcat. A parallel assay was also carried out under identical conditions, but with the inclusion of 321 mM isobutanol (24 g/L) in the reaction. An enzyme that is relatively uninhibited by this concentration of isobutanol would have a time course that closely mimics the time course in the absence of isobutanol.

Data set [3] can be described thus: Isobutanol oxidation assay. The settings on record: Table 8. As to the method:
as §1
Kinetic constants of the ADH enzymes were calculated and compared to identify those candidate ADH enzymes with the most desirable properties for the conversion of isobutyraldehyde to isobutanol in the last step of the engineered pathway for isobutanol production. The assays for determining the kinetic constants were carried out using initial rates from the assays described above. […] The concentration of a given enzyme was such that it was conducive for the measurement of initial velocities over a 1-min time course. For each enzyme, Michaelis-Menten plots were generated with a broad range of substrate concentrations. Rough estimates of KM were obtained, based on which the assays were redesigned so as to use substrate concentrations in the range 0.5 to 10 times the KM value, to be able to obtain the appropriate kinetic constants. […] When calculating the KI for isobutanol, the same reactions were carried out in the presence of varying concentrations of isobutanol (generally 0-535 mM) in the reaction (see FIG. 7, for example). Reactions with isobutanol substrate were performed at 30° C. in 50 mM Sodium phosphate buffer, pH 8.8, containing 7.5 mM NAD. The Enzyme kinetics module (Version 1.3) of SigmaPlot 11 (Systat Software, Inc.) was used to fit data to Michaelis-Menten equations and calculate the kinetic constants. The kcat/KM is derived from the individual numbers of kcat and KM and not an experimentally determined value. The ratios of the KM, KI, and kcat/KM for each candidate enzyme as compared to the same parameter for SadB are given in Table 9.

Data set [4] in a line: ADH activity assays of cell extracts and purified proteins. The settings on record: cell extracts or purified protein, initial experiments. As to the method: as §1, §2

B1: BiADH: ADH of Beijerinckia indica subsp. Indica ATCC 9039, SEQ ID NO: 31 (protein, listed as Beijerickia indica)
chain: MKALVYRGPGQKLVEERQKPELKEPGDAIVKVTKTTICGTDLHILKGDVATCKPGRVLGHEGVGVIESVGSGVTAFQPGDRVLISCISSCGKCSFCRRGMFSHCTTGGWILGNEIDGTQAEYVRVPHADTSLYRIPAGADEEALVMLSDILPTGFECGVLNGKVAPGSSVAIVGAGPVGLAALLTAQFYSPAEIIMIDLDDNRLGLAKQFGATRTVNSTGGNAAAEVKALTEGLGVDTAIEAVGIPATFELCQNIVAPGGTIANVGVHGSKVDLHLESLWSHNVTITTRLVDTATTPMLLKTVQSHKLDPSRLITHRFSLDQILDAYETFGQAASTQALKVIISMEA
With B1, the “COFACTOR PREFERENCE” value in data set [1] is “NADH”. Besides, in data set [2] (1 ug enzyme, 1 mM isobutyraldehyde, 200 μM NADH, 10 min), the “kcat for the isobutyraldehyde reduction reaction (inferred from time courses, FIG. 1)” value is on record as “likely to have the highest kcat”.

B2: McADH: Mucor circinelloides ADH, SEQ ID NO: 39 (protein)
chain: MSEETFTAWACKSKSAPLEPMEMTFCHWDDDMVQMDVICCGVCGTDLHTVDEGWGPTEFPCVVGHEIIGNVTKVGKNVTRIKVGDRCGVGCQSASCGKCDFCKKGMENLCSTHAVWTFNDRYDNATKDKTYGGFAKKWRGNQDFVVHVPMDFSPEVAASFLCGGVTTYAPLKRYGVGKGSKVAVLGLGGLGHFGVQWAKAMGAEVVAFDVIPDKVDDAKKLGCDDYVLMQKEEQMEPHYNTFTHILATKIVNKCWDQYFKMLKNNGIFMLCDIPEVPLSGMSAFVMAGKQLTIAGTFIGSPSVIQECLDFAAKHNVRTWVNTFPMEKINEAFEFVRQAKPRYRAVVMN
modifications: Mucor circinelloides
Regarding B2, in data set [1] (Table 8), the “Other enzymatic properties and cofactor preference” value was “NADH specific”. In addition, the “COFACTOR PREFERENCE” value in data set [1] is reported as “NADH”. Also, in data set [3], the “conversion of isobutanol to isobutyraldehyde” value is recorded as “No measureable”.

B3: VpADH: Vanderwaltozyma polyspora DSM 70294 ADH, SEQ ID NO: 38 (protein)
chain: MSYPEKFQGIGITNREDWKHPKKVTFEPKQFNDKDVDIKIEACGVCGSDVHCAASHWGPVAEKQVVGHEIIGRVLKVGPKCTTGIKVGDRVGVGAQAWSCLECSRCKSDNESYCPKSVWTYSIPYIDGYVSQGGYASHIRLHEHFAIPIPDKLSNELAAPLLCGGITVYSPLLRNGCGPGKKVGIVGIGGIGHMGLLFAKGMGAEVYAFSRTHSKEADAKKLGADHFIATLEDKDWTTKYFDTLDLLVICASSLTDINFDELTKIMKVNTKIISISAPAADEVLTLKPFGLIGVTIGNSAIGSRREIEHLLNFVAEKDIKPWVETLPVGEAGVNEAFERMDKGDVKYRFTLVDFDKEFGN
modifications: Vanderwaltozyma polyspora DSM 70294
For the molecule B3, in data set [4], the ADH activity entry is recorded as “no detectable activity”.

B4: BtARD: Bos Taurus Aldehyde Reductase, SEQ ID NO: 27 (protein, listed as Bos taurus)
chain: MAASCILLHTGQKMPLIGLGTWKSDPGQVKAAIKYALSVGYRHIDCAAIYGNETEIGEALKENVGPGKLVPREELFVTSKLWNTKHHPEDVEPALRKTLADLQLEYLDLYLMHWPYAFERGDSPFPKNADGTIRYDSTHYKETWRALEALVAKGLVRALGLSNFNSRQIDDVLSVASVRPAVLQVECHPYLAQNELIAHCQARNLEVTAYSPLGSSDRAWRDPEEPVLLKEPVVLALAEKHGRSPAQILLRWQVQRKVSCIPKSVTPSRILENIQVFDFTFSPEEMKQLDALNKNLRFIVPMLTVDGKRVPRDAGHPLYPFNDPY
For B4, in data set [4], the ADH activity result is given as “no detectable activity”.

B5: EhADH1: Entamoeba histolytica ADH1, SEQ ID NO: 30 (protein, listed as Entamoeba histolytica)
chain: MKGLAMLGIGRIGWIEKKIPECGPLDALVRPLALAPCTSDTHTVWAGAIGDRHDMILGHEAVGQIVKVGSLVKRLKVGDKVIVPAITPDWGEEESQRGYPMHSGGMLGGWKFSNFKDGVFSEVFHVNEADANLALLPRDIKPEDAVMLSDMVTTGFHGAELANIKLGDTVCVIGIGPVGLMSVAGANHLGAGRIFAVGSRKHCCDIALEYGATDIINYKNGDIVEQILKATDGKGVDKVVIAGGDVHTFAQAVKMIKPGSDIGNVNYLGEGDNIDIPRSEWGVGMGHKHIHGGLTPGGRVRMEKLASLISTGKLDTSKLITHRFEGLEKVEDALMLMKNKPADLIKPVVRIHYDDEDTLH
As to B5, the ADH activity result in data set [4] is recorded as “failed to detect ADH activity”.

B6: RpADH8: Rana perezi ADH8, SEQ ID NO: 28 (protein, listed as Rama perezi)
chain: MCTAGKDITCKAAVAWEPHKPLSLETITVAPPKAHEVRIKILASGICGSDSSVLKEIIPSKFPVILGHEAVGVVESIGAGVTCVKPGDKVIPLFVPQCGSCRACKSSNSNFCEKNDMGAKTGLMADMTSRFTCRGKPIYNLVGTSTFTEYTVVADIAVAKIDPKAPLESCLIGCGFATGYGAAVNTAKVTPGSTCAVFGLGGVGFSAIVGCKAAGASRIIGVGTHKDKFPKAIELGATECLNPKDYDKPIYEVICEKTNGGVDYAVECAGRIETMMNALQSTYCGSGVTVVLGLASPNERLPLDPLLLLTGRSLKGSVFGGFKGEEVSRLVDDYMKKKINVNFLVSTKLTLDQINKAFELLSSGQGVRSIMIY
For B6, the ADH activity entry in data set [4] is on record as “failed to detect ADH activity”.

B7: ScADH6: Saccharomyces cerevisiae ADH6 alcohol dehydrogenase, SEQ ID NO: 22 (protein, listed as Saccharomyces cerevisiae)
chain: MSYPEKFEGIAIQSHEDWKNPKKTKYDPKPFYDHDIDIKIEACGVCGSDIHCAAGHWGNMKMPLVVGHEIVGKVVKLGPKSNSGLKVGQRVGVGAQVFSCLECDRCKNDNEPYCTKFVTTYSQPYEDGYVSQGGYANYVRVHEHFVVPIPENIPSHLAAPLLCGGLTVYSPLVRNGCGPGKKVGIVGLGGIGSMGTLISKAMGAETYVISRSSRKREDAMKMGADHYIATLEEGDWGEKYFDTFDLIVVCASSLTDIDFNIMPKAMKVGGRIVSISIPEQHEMLSLKPYGLKAVSISYSALGSIKELNQLLKLVSEKDIKIWVETLPVGEAGVHEAFERMEKGDVRYRFTLVGYDKEFSD
Take B7: in data set [1] (Table 7), the “Other enzymatic properties and cofactor preference” value was “NADPH specific”. In data set [1], the “COFACTOR PREFERENCE” value is listed as “NADPH”. Besides, the “inhibition by isobutanol (inferred from time courses, FIG. 1)” value in data set [2] (321 mM isobutanol (24 g/L)) was “likely to be the least inhibited”.
